Positions of bridges follow the written chain, without caps; N, C: chain ends. Non-standard residues stand in square brackets, D forms with d. No end group written: not given here. Hyp = O=C(O)[C@@H]1C[C@@H](O)CN1; cY = chlorotyrosine; Ahx = NCCCCCC(=O)O
Assays:
[1] = tested on: ICAM-1; test: Induction of ICAM-1 expression in HUVECs (immuno-staining); assay type: cell-based, Human; settings: 10 ng/ml overnight
Protocol: This example illustrates the induction of ICAM-1 expression in HUVECs. […] Human Umbilical Vein Endothelial Cells (HUVECs) were cultured on slides coated with gelatin in Medium 200 supplemented with LSGS (Cascade Biologics/Invitrogen). One day after plating, cells were treated with 10 ng/ml TNF-alpha or vehicle alone overnight. The next day cells were fixed and immuno-stained for ICAM-1 expression (antibody from Cell Signaling).

[2] = tested on: MDA-MB-435 tumor; test: Autonomous communication between tTF signaling components and FXIII-NW receivers; assay type: in vivo, mice; settings: tTF-RGD+FXIII-NWs plus heparin 800 units/kg i.v. + 500 units/kg i.p.
Protocol: For autonomously-communicating nanosystems, NIR-fluorophore-labeled peptide-bearing NWs (bearing VT750 fluorophores) were intravenously (2 mg Fe/kg) in PBS to unanaesthetized MDA-MB-435 tumor-bearing nu/nu mice alone or alongside various tTF signaling components (25 micrograms). At 24 hours post-NW injection, the mice were sacrificed and organs were analyzed for NIR receiver fluorescence (LI-COR Odyssey Infrared Imaging System). For intraoperative fluorescent tumor imaging, mice were anaesthesized and tumours were surgically exposed to reveal detailed tumor fluorescence (LI-COR). The levels of NW homing to tumors were plotted by comparing the average NW fluorescence in fully-excised tumours (n=4 mice at each condition). For whole animal organ distribution, tTF-RGD signaling components were administered intraperitoneally (25 micrograms) and FXIII-NWs were administered intravenously (2 mg Fe/kg) to unanaesthetized mice bearing an MDA-MB-435 tumor.
Nu/nu mice bearing a single MDA-MB-435 tumor were intravenously injected with communicating (tTF-RGD+FXIII-NWs) or control (tTF-RGD+control-NWs) systems, FXIII-NWs alone, or NWs targeted by the peptide used to direct signaling component tumor homing (1 mg/kg tTF-RGD). At 24 hours post-injection, tumors were surgically exposed for fluorescent intraoperative imaging of NW homing. […]

[3] = tested on: MDA-MB-435 tumors; test: Nanoworm receiver homing to externally heated tumors; assay type: in vivo, mice; settings: 24 hours
Protocol: (§1) Quantifying NW homing to tumors: Mixtures of NIR-fluorophore-labeled, targeted and control NWs (bearing VT750 and VT680 or VT680 and VT750, respectively) were co-adminstered intravenously in PBS (2 mg Fe/kg) to tumor-bearing nu/nu mice to provide an internal control reference for coagulation-specific NW homing. At 24 hours post-NW injection, mice were sacrificed and organs were analyzed for both NIR-fluorophores (LI-COR Odyssey Infrared Imaging System). For integrated nanoparticle system characterization, mice were additionally imaged under isofluorane anaesthetic before euthanization using a whole animal fluorescence reflectance imaging system (Xenogen, IVIS Imaging System) to visualize the specificity of NW homing to tumors. […] For initial characterization, levels of targeted and control NW homing were plotted by comparing the average NW fluorescence in heated tumors versus unheated tumors (n=4 mice at each temperature). For integrated network evaluation, levels were plotted by comparing the average targeted and untargeted NW fluorescence in irradiated tumors versus un-irradiated tumors (n=4 mice for all conditions).
Having observed that external heating of tumors produced localized coagulation, this response was utilized in an assay to assess the ability of receivers to target tumor coagulation prior to integrating them with signaling components. […]

[4] = tested on: MDA-MB-435 tumors; test: Integrated PEG-NR signaling / FXIII-NW receiver communication, NIR fluorescence imaging; assay type: in vivo, mice; settings: PEG-NRs 10 mg Au/kg, 72 h later NWs i.v. + 810 nm ~0.75 W/cm^2 20 min; imaging at 96 hours
Protocol: as §1
PEG-NRs (or saline) were intravenously-injected into mice bearing bilateral MDA-MB-435 tumors. […]

[5] = tested on: MDA-MB-435 tumors; test: Small molecule vascular disrupting agents: induction of coagulation in tumors (fibrinogen/albumin tropism); assay type: in vivo, mice; settings: i.p. DMXAA 20 mg/kg or colchicine 1 mg/kg; 24 hours
Protocol: Mice bearing MDA-MB-435 tumors were intravenously injected with a mixture of fibrinogen and albumin that had been labeled with unique near-infrared fluorophores (VT750 and VT680, respectively). Immediately after injection, mice were intraperitoneally injected with DMXAA (20 mg/kg) in 200 microliters of sodium bicarbonate buffer or vehicle. At 24 hours after injections, mice were sacrificed and organs removed for fluorescent quantification of protein tropism to tumors (* indicates p=0.014; n=6). […] Mice bearing bilateral MDA-MB-435 tumors were intravenously injected with a mixture of fibrinogen and albumin that had been labeled with unique near-infrared fluorophores (VT750 and VT680, respectively). […] At 24 hours after injections, mice were sacrificed and organs removed for fluorescent quantification of protein tropism to tumors.

[6] = target: T1, coagulation transglutaminase Factor XIII (mouse, UniProt Q8BH61 39-732); test: cell-based or functional assay
T1 sequence (looked up): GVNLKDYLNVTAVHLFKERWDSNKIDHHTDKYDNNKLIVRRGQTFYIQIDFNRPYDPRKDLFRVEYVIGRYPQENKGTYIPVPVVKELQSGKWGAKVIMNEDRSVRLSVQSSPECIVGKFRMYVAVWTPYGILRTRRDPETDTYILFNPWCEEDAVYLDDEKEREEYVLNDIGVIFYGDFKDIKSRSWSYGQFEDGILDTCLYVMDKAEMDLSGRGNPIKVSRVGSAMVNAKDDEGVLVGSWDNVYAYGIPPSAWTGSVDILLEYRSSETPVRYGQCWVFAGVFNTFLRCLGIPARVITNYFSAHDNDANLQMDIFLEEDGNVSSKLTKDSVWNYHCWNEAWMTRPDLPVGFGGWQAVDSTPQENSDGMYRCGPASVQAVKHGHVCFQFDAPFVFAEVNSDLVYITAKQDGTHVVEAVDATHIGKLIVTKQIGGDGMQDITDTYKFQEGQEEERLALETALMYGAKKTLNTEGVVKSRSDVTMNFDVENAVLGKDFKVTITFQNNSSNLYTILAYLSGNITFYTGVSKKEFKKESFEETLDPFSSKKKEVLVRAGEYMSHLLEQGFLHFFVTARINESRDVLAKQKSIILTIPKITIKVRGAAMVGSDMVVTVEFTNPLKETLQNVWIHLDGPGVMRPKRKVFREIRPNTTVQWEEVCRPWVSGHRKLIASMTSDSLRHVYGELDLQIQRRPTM

[7] = target: fibrin (polymerized fibrin deposited in heated tumors of mice) (mouse, UniProt E9PV24 37-789; Q8K0E8 35-481; Q8VCM7 26-436, limits assumed); test: cell-based or functional assay
Chain of fibrin (polymerized fibrin deposited in heated tumors of mice) (E9PV24 37-789 limits assumed, chain 1 of 3): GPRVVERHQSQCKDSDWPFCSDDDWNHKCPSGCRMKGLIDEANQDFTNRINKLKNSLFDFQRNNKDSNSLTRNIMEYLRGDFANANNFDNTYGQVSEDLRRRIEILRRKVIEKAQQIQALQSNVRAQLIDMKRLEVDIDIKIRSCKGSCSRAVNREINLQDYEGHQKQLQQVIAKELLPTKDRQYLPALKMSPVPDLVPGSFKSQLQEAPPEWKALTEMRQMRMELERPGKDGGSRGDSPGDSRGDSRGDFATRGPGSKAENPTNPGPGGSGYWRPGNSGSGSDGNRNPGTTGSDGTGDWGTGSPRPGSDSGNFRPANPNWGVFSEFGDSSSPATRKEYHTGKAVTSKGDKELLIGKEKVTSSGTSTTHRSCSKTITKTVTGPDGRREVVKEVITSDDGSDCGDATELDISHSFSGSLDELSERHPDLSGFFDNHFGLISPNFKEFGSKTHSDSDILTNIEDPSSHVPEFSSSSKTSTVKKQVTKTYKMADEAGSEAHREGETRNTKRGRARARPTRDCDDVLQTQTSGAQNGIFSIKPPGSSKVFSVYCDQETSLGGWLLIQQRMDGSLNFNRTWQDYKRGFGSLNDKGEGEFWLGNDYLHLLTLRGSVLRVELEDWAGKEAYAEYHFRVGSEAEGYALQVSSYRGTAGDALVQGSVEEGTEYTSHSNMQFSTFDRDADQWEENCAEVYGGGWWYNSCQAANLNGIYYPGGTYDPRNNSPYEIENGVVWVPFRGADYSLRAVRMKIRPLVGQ
Chain of fibrin (polymerized fibrin deposited in heated tumors of mice) (Q8K0E8 35-481 limits assumed, chain 2 of 3): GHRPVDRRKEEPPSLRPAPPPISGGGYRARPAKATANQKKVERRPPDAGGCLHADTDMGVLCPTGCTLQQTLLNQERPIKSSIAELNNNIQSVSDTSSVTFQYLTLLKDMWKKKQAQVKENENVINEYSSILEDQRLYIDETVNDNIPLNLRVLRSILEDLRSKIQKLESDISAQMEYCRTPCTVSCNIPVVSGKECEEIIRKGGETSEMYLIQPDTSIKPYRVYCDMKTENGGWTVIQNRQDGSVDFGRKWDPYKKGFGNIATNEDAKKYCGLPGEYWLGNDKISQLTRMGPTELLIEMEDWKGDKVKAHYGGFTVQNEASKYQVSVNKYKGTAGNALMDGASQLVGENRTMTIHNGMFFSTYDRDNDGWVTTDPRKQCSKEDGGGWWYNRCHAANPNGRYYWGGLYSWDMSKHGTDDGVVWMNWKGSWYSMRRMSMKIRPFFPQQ
Chain of fibrin (polymerized fibrin deposited in heated tumors of mice) (Q8VCM7 26-436 limits assumed, chain 3 of 3): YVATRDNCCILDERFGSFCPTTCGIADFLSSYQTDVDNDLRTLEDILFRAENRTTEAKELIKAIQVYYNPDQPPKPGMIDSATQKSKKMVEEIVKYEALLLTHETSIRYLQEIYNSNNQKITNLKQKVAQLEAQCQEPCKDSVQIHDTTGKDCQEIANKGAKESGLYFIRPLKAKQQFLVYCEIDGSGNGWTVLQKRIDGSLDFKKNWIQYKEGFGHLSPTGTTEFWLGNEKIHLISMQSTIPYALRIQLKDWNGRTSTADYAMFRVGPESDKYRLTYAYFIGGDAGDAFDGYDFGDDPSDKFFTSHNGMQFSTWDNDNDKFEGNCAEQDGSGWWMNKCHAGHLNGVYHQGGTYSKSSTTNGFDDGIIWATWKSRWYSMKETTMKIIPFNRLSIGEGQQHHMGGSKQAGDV

TNF-alpha
ICAM-1 expression on the cell surface [1]: upregulation of ICAM-1 on the cell surface

heparin
amplified vascular targeting when coagulation inhibitor administered alongside the integrated system [2]: absent

FXIII-NWs: magnetofluorescent iron oxide nanoworms derivatized with a peptide substrate for coagulation transglutaminase Factor XIII (SEQ ID NO: 2) (GNQEQVSPLTLLK[Ahx]CK-Fluorescein; not fully specified (residue 15))
histopathological distribution in heated tumors compared with controls ([3]; heated tumors): marked extravasation and interstitial spreading
increase in tumor targeting, heated compared to unheated tumors ([3]; one tumor heated at 45° C. in water bath 20 min): nearly an order of magnitude
increase in accumulation in NR-heated tumors above unirradiated contralateral tumors and tumors on saline-injected mice [4]: over an order of magnitude

Cc1ccc2c(=O)c3cccc(CC(=O)O)c3oc2c1C [DMXAA, 5,6-dimethylxanthenone-4-acetic acid]
induction of coagulation in tumors [5]: specifically induced coagulation in tumors

GNQEQVSPLTLLK[Ahx]CK-Fluorescein (also: coupled through the exogenous Cys to nanoworm or liposome carrier)
accumulation of FXIII-substrate receiving NWs in tumors heated to 45 C against unheated tumors (in vivo, NIR fluorescence at 24 hours) [6]: ~10 fold
accumulation of FXIII-targeted NWs in nanorod-heated tumors against unirradiated contralateral tumors and tumors on saline-injected mice (in vivo, whole-animal fluorescence) [6]: > 10 fold
doxorubicin accumulation in tumors heated to 45 C against unheated controls, FXIII-substrate liposomes (in vivo) [6]: > 40 fold
doxorubicin accumulation in tumors, NR signaling components plus FXIII-LP receivers against the LPs alone (in vivo) [6]: > 40 fold

B1: fibrin-binding peptide Ac-d-d-d-G-Y-e-C-hyP-cY-G-L-C-Y-I-Q-K-Fluorescein (peptide)
peptide: Ac-[dD][dD][dD]GY[dE]C[Hyp][cY]GLCYIQK-Fluorescein
modifications: disulfide 7-12 (inferred); not fully specified; printed as Ac-d-d-d-G-Y-e-C-hyP-cY-G-L-C-Y-I-Q-K-Fluorescein; also: attached to nanoworm via the Lys with NHS-PEO5-NHS linker
targeting of fibrin-binding receiving NWs to heated tumors against unheated tumors (in vivo, NIR fluorescence) [7]: ~10 fold
